Experimental data reported in patent US20230074615A1.
Changes are numbered by the printed parent chain. Each block holds one binder with its values, some of them ahead of it.

What was measured:
[1] = molecular target: catalytic domain of human MMP-9 (cdMMP-9) (human) (UniProt P14780); assay: inhibition of cdMMP-9 proteolytic activity, FRET peptide substrate
[2] = molecular target: catalytic domain of human MMP-9 (cdMMP-9) (human) (UniProt P14780); assay: biolayer interferometry, biotinylated protease on streptavidin sensor, Fab in solution
[3] = molecular target: catalytic domain of human MMP-9 (cdMMP-9) (human) (UniProt P14780); assay: FRET peptide substrate inhibition assay, K1=IC50/(S/Km+1)
[4] = molecular target: catalytic domain of human MMP-9 (cdMMP-9) (human) (UniProt P14780)
[5] = molecular target: catalytic domain of human MMP-9 (cdMMP-9) (human) (UniProt P14780); assay: biolayer interferometry, biotinylated cdMMP-9 on streptavidin biosensors, Fab in solution
[6] = molecular target: catalytic domain of human MMP-9 (cdMMP-9) (human) (UniProt P14780); assay: cell-based or functional assay
[7] = molecular target: catalytic domain of human MMP-9 (cdMMP-9) (human) (UniProt P14780); assay: biolayer interferometry, IgG on protein A sensor, protease in solution

Chain of UniProt P14780 (P14780 other isoform, or with tags, fused parts or gaps limits assumed): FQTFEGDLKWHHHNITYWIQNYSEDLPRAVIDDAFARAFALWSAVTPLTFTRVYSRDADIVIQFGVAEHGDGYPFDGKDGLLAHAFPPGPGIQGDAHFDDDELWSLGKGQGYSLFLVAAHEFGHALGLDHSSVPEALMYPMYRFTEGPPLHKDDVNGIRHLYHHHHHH

B1: anti-MMP9 Fab L13 (Fab, V domains shown)
VH: EVQLVESGGGLVQPGGSLRLSCAASGFNISSSYIHWVRQAPGKGLEWVASISSSSGYTSYADSVKGRFTISADTSKNTAYLQMNSLRAEDTAVYYCARKYMVFGTRMGWVEHTDFAGQGYYAMDYWGQGTLVTVSS
VL: DIQMTQSPSSLSASVGDRVTITCRASQSVSSAVAWYQQKPGKAPKLLIYSASSLYSGVPSRFSGSRSGTDFTLTISSLQPEDFATYYCQQYAALITFGQGTKVEIKR
- IC50 [1]: 0.26 µM
- Kd [2]: 0.12 µM
- Ki [3]: 0.15 µM
- Km of cdMMP-9 on FRET peptide substrate at 63 nM Fab L13 (without Fab: 1.3) [4]: 3.3 µM
- Km of cdMMP-9 on FRET peptide substrate at 125 nM Fab L13 (without Fab: 1.3) [4]: 4.6 µM
- Km of cdMMP-9 on FRET peptide substrate at 250 nM Fab L13 (without Fab: 1.3) [4]: 5.1 µM
- Vmax of cdMMP-9 on FRET peptide substrate at 63 nM Fab L13 (without Fab: 1.3) [4]: 0.7 ΔRFU/s
- Vmax of cdMMP-9 on FRET peptide substrate at 125 nM Fab L13 (without Fab: 1.3) [4]: 0.7 ΔRFU/s
- Vmax of cdMMP-9 on FRET peptide substrate at 250 nM Fab L13 (without Fab: 1.3) [4]: 0.6 ΔRFU/s
- koff [5]: 0.0044 s⁻¹
- kon [5]: 83000 M⁻¹ s⁻¹
- degradation of type I collagen by cdMMP-9 (SDS-PAGE) [6]: 4%

B2: anti-MMP9 Fab H3 (Fab, V domains shown)
VH: EVQLVESGGGLVQPGGSLRLSCAASGFNIYSSSMHWVRQAPGKGLEWVAYIYSSYGYTYYADSVKGRFTISADTSKNTAYLQMNSLRAEDTAVYYCARRFEPGLLKRNKRWISYTLCEAGYGMDYWGQGTLVTVSS
VL: B1 VL with Y91A, A92S, A93H
- Kd [2]: 0.098 µM
- Ki [3]: 0.066 µM
- koff [5]: 0.0048 s⁻¹
- kon [5]: 49000 M⁻¹ s⁻¹

B5: anti-MMP9 Fab H25 (Fab, V domains shown)
VH: EVQLVESGGGLVQPGGSLRLSCAASGFNIYSSSMHWVRQAPGKGLEWVASIYSYYGYTYYADSVKGRFTISADTSKNTAYLQMNSLRAEDTAVYYCARCKLYTSYMIPVGSDSVNRCMSSYGMDYWGQGTLVTVSS
VL: DIQMTQSPSSLSASVGDRVTITCRASQSVSSAVAWYQQKPGKAPKLLIYSASSLYSGVPSRFSGSRSGTDFTLTISSLQPEDFATYYCQQGGGASLITFGQGTKVEIKR
- IC50 [1]: 0.52 µM
- Kd [2]: 0.45 µM
- Ki [3]: 0.29 µM
- koff [5]: 0.031 s⁻¹
- kon [5]: 69000 M⁻¹ s⁻¹

Second part, the binder after the results:

- Kd [7]: 0.071 µM
- IC50 [1]: 0.092 µM
- Ki [3]: 0.051 µM
B3: anti-MMP9 IgG H3 (antibody, V domains shown)
VH: B2 VH
VL: B1 VL with Y91A, A92S, A93H

- Kd [7]: 0.053 µM
- IC50 [1]: 0.2 µM
- Ki [3]: 0.11 µM
B4: anti-MMP9 IgG L13 (antibody, V domains shown)
VH: B1 VH
VL: B1 VL
